Experimental data reported in article PMC12083643, “Closed State Structure of the Pore Revealed by Uncoupled Shaker K+ Channel” (Research Square, 2025).

Molecular target: the molecule itself
Test: cryo-EM structure; single-particle cryo-EM of the purified channel in 0.02% GDN, 150 mM KCl, 2 mM TCEP, 1 mM EDTA, 50 mM TRIS pH 7.5; about 0.7 mg/mL; refinement with C4 symmetry

B1: Shaker-IR-I384R (natural protein, UniProt P08510 1-655, looked up)
chain: MAAVALREQQLQRNSLDGYGSLPKLSSQDEEGGAGHGFGGGPQHFEPIPHDHDFCERVVINVSGLRFETQLRTLNQFPDTLLGDPARRLRYFDPLRNEYFFDRSRPSFDAILYYYQSGGRLRRPVNVPLDVFSEEIKFYELGDQAINKFREDEGFIKEEERPLPDNEKQRKVWLLFEYPESSQAARVVAIISVFVILLSIVIFCLETLPEFKHYKVFNTTTNGTKIEEDEVPDITDPFFLIETLCIIWFTFELTVRFLACPNKLNFCRDVMNVIDIIAIIPYFITLATVVAEEEDTLNLPKAPVSPQDKSSNQAMSLAILRVIRLVRVFRIFKLSRHSKGLQRLGRTLKASMRELGLLIFFLFIGVVLFSSAVYFAEAGSENSFFKSIPDAFWWAVVTMTTVGYGDMTPVGVWGKIVGSLCAIAGVLTIALPVPVIVSNFNYFYHRETDQEEMQSQNFNHVTSCPYLPGTLGQHMKKSSLSESSSDMMDLDDGVESTPGLTETHPGRSAVAPFLGAQQQQQQPVASSLSMSIDKQLQHPLQQLTQTQLYQQQQQQQQQQQNGFKQQQQQTQQQLQQQQSHTINASAAAATSGSGSSGLTMRHNNALAVSIETDV
notes: Subcloned into a modified pEG BacMam vector with a C-terminal HRV 3C protease site, eGFP and 8x-His; the channel was released from the beads by HRV 3C protease; PDB 7SIP (Shaker-IR without I384R) was the template for model building; also called uncoupled channel; uncoupled I384R mutant; not shown: eGFP, C-terminal, cleaved; 8x-His, C-terminal, cleaved
  stoichiometry N: 4
